Data on 30 sequences can be found in the nanobody polyreactivity screen of Harvey et al. (2022).

A short description of the series: yeast display, Sf9 membrane polyspecificity reagent, FACS + sequencing; frameworks hold sequencing errors. The gist of the method: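 Using colony PCR, genes from sorted yeast display clones were amplified, then sequenced on MiSeq at 2 × 250 and filtered by CDR length. The clones had been stained with 10% biotinylated, detergent-solubilized Sf9 membrane reagent for 1 hour at 4 °C and sorted by FACS into low and high (top ~1%) gates on anti-HA and streptavidin fluorescence. Polyreactivity labels come from the gate of origin.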
Turning to “QVQLVESGGGVVQAGGSLRLSCAASGRTFQFNAMGWYRQAPGKERELVATIDDPSGGTYYADSVKGRFTISRDNAKNTVYLQMNSLKPEDTAVYYCAADRWDSRYETYRYDYWGQGTQVTVSS”, the “polyreactivity (PSR sort gate)” value is “low polyreactivity”.

“QVQLVESGGGVVQAGGSLRLSCAASGRTSGSYAMGWYRQAPGNERELVAVITTSDGSTYYADSVKGRFTISRDNAKNTVYLQMNSLKPEDTAVYYCNVDYPNLWYDSYYYWGQGTQVTVSS”: the “polyreactivity (PSR sort gate)” value is “low polyreactivity”.

Take “QVQLVESGGGVVQAGGSLRLSCAASGSFFYVYAMGWYRQAPGKERELVAAITATYYADSVKGRFTISRDNAKNTVYLQMNSLKPEDTAVYYCAAAPWTYWEDYDFWGQGTQVTVSS”: the “polyreactivity (PSR sort gate)” value is “low polyreactivity”.

“QVQLVESGGGVVQAGGSLRLSCAASGSIFKSYAMGWYRQAPGKERELVAAITWSGGSTHYADSVKGRFTISRDNAKNTVYLQMNSLKPEDTAVYYCAADGYTGQAELDSWGQGTQVTVSS”: the “polyreactivity (PSR sort gate)” value is recorded as “low polyreactivity”.

As for “QVQLVESGGGVVQAGGSLRLSCAASGSIFLRYAMGWYREAPGKERELVAAITSSGGSTYYADSVKGRFTISRDNAKNTVYLQMNSLKPQDNAVYYCNARAYTRYSRLDYWGQGTQVSVSS”, the “polyreactivity (PSR sort gate)” value was “high polyreactivity”.

In the case of “QVQLVESGGGVVQAGGSLRLSCAASGSIFPINAMGWYRQAPGKERELVAAITSGGSTNYADSVKGRFTISRDNAKNTVYLQMNSLKPEDTAVYYCAADWRYWRWAFDYWGQGTQVTVSS”, the “polyreactivity (PSR sort gate)” value was “high polyreactivity”.

Take “QVQLVESGGGVVQAGGSLRLSCAASGSIFYSYAMGWYRQAPGKERELVAAISSSGTSTYYADSVKGRFTISRDNAKNTVYLQMNSLKPEDTAVYYCAARFYGTSYYRYNYWGQGTQVTVSS”: the “polyreactivity (PSR sort gate)” value was “high polyreactivity”.

“QVQLVESGGGVVQAGGSLRLSCAASGSIFYYYAMGWYRQAPGKERELVASITHTGGSTNYADSVKGRFTISRDNAKNTVYLQKNSLKPEDTAVYYCAAEYWNDNYSDPLYDYWGQGTQVTVSS”: the “polyreactivity (PSR sort gate)” value is recorded as “low polyreactivity”.

Consider “QVQLVESGGGVVQAGGSLRLSCAASGSTFARKAMGWYRPAPGKERELVAAITYSGGRTYYADSVKGRVTISRDNAKNTVYLQMNRLKPVDTAVYYCAVKSFSGHGDYWGQGTQVTLSS”, for which the “polyreactivity (PSR sort gate)” value is “low polyreactivity”.

For the sequence “QVQLVESGGGVVQAGGSLRLSCAASGTFYLYAMGWYRQAPGKERELVAAISGSGSTNYADSVKGRFTISRDNAKNTVYLQMNSLKPEDTAVYYCAAYQRYDSVTGARYEYDYWGQGTQVTVSS”, the “polyreactivity (PSR sort gate)” value is recorded as “low polyreactivity”.

As for “QVQLVESGGGVVQAGGSLRLSCAAYGRTFYVYTLGWYRPAPGKERELVAANTSGGSTNYADCVMGRFTISRDYAKNTVYLQMNSLKPEDTAVYYCAAKRYNRLRSYRYSDREDYWGQGTQVTVSS”, the “polyreactivity (PSR sort gate)” value is listed as “high polyreactivity”.

For “QVQLVESGGGVVQAGGSLRLSCAGSGFIFSYYTMGWYRQAPGKERELVAAITSGGSTNYADSVKGRFTISRDNAKNTVYLQMNSLKPEDTAVYYCNALLWAWTLWGSGYDYWGQGTQVTVSS”, the “polyreactivity (PSR sort gate)” value is given as “low polyreactivity”.

Regarding “QVQLVESGGGVVQAGGSLRLSCSASGSTFLGYVMGWYRQAPGKEREFVAVISRSGGDTYYADSVKGRFTISRDNAKNTVYLQMNSLKPEDTAVFYCNTRVRASSVDYDEGDYWGQGTQVTVSS”, the “polyreactivity (PSR sort gate)” value is “low polyreactivity”.

On to “QVQLVESGGGVVQAGRSLRLSCAASGRLFYEYAMGWYRQAPGKEREFVAAISYSGSRTYYADSVKGRFTISRDNAKYTVYLQLNCLIPEDTAVYYCAAVVAFGTGTFYYWGQGRQVTVSS”, for which the “polyreactivity (PSR sort gate)” value is on record as “high polyreactivity”.

In the case of “QVQLVESGGGVVQSRGSLRLTCAASGRIFLQYAMGWYRQAPWKERELVAAIEWSGGRTYYADSVKGRFTISRDNAKNTVYLQMNSLTPEDTAVYYCAARRISGSAVRGSRGYWGQGTQVTVSS”, the “polyreactivity (PSR sort gate)” value is “high polyreactivity”.

Consider “QVQLVESGGLLVQAGGILRLSCAASGITFQYYAMGWSRQAPGKERELVAANTSSGVSTYYADSVKGRFTISRDNAKNTVYFQMNSLKPEDTAVYYCNTVVRGWSSSADDYWVQGTQVTVSS”, for which the “polyreactivity (PSR sort gate)” value is “low polyreactivity”.

Turning to “QVQLVESGGLLVQAGGSIRITCAASGSTLWFNAMGWYRQAPGKERELVAAINWSGGSTYYADSVKGRFSISRDNAKITVYVQMTSLKPEDTAVYYCAAFYQYVHYVWYDYWGQGSQVTVSS”, the “polyreactivity (PSR sort gate)” value is reported as “low polyreactivity”.

In the case of “QVQLVESGGLLVQAGGSLRLSCAASGFIFNQYAMGWDRQAPAKVREFVAGISWSGGATYYADSVKGRFTISRDNAKNTVYLQMNSLKPEETAVYYCAADRTYSFYYTQGYEYWGQGTHVTVSS”, the “polyreactivity (PSR sort gate)” value is listed as “low polyreactivity”.

With “QVQLVESGGPLVQAGGSLRLSFAACGFTLWSYSLGWYRQAPGKESELVAAINSRGGRTSYADSVKGRFTISRDNAKNTVYLQINRLKPEDTAVYYCATDPISRARLYGQRDYWGQGTQVTVSS”, the “polyreactivity (PSR sort gate)” value is given as “high polyreactivity”.

Take “QVQLVESGGRIFQAGGSLRLSCAASGLIFPYYVMGWYRQAPGKERELVADITWSGGRTYYADSVKGRFTISRDNAKNTVYLQMNSLKPEDTSVYYCKAETGGVYDNYYYVGEYYFWGQGTQVTVSS”: the “polyreactivity (PSR sort gate)” value is reported as “low polyreactivity”.

Regarding “QVQLVESGGRIVQAGGSLRLSCDASGSTIFGNGMGWYRQAPGKERELVAAISGGGSTHYADSVKGRFTISRDNAKNTVYLQMNSVKPEDTAVYYCSPSRDTDGRGPIQRDFWGQGTQVTVSS”, the “polyreactivity (PSR sort gate)” value is listed as “low polyreactivity”.

Consider “QVQLVESGGRLDQAGGSLRLSCAASGRIFSRNTMGWYRQAPGKERELVATITSAGSTSFADSVKGRFTISRDNAKNTVYLQMNSLKPENTAVYYCAKRGAYATGRRYDPYGYWGQGTQVTVSS”, for which the “polyreactivity (PSR sort gate)” value was “high polyreactivity”.

In the case of “QVQLVESGGRLDQARGSLRLSCAASGYNFQPYAMGWYRLAPGKERDLVAAISWRGGSTYYADSVKGRFTISRDNAKNTVYLQMTSLKPEDTAVYYCAKDYYYGLEHYGYWGQGTQVTVSS”, the “polyreactivity (PSR sort gate)” value was “low polyreactivity”.

Consider “QVQLVESGGRLLQAGGSLRLSCAASGRIIGLYAMGWYRPAPGKEWEFVAAINWDGGSTFYADSVKGRFTISRDNAKNSVYLQMNSLQPEDTAVYYCAADVYSYVSNCTYVSVFTYDYWGHGTQVTVSS”, for which the “polyreactivity (PSR sort gate)” value was “low polyreactivity”.

For the sequence “QVQLVESGGRLVPAGGSLRLTCAASGIISVYYVMGWYRPAPGKERELVAAINRSGGNTYYADSVKGRFTISRDNAKNTVYLQMNSLKPEDTAVYYCKASLYFYRYGHDDESDYWGQGTQVTVSS”, the “polyreactivity (PSR sort gate)” value is “high polyreactivity”.

As to “QVQLVESGGRLVQAGASLRLSCAASGRILYWNTMGWYRQAPGKERELVASITQNVGSTYYADSVKGRFTISRDNAKNTVYLQMISMIPEDTAVYYCAAKRLSWHRYGYWGQGTQVTVSS”, the “polyreactivity (PSR sort gate)” value was “low polyreactivity”.

With “QVQLVESGGRLVQAGASLRLSCAASGSTFSTNAMGWYRQAPGKEREFVPAISRSGGRTYYADSVKGRFTISRDNAKNTVYLQMNSLKRDDTAVYYCAAGITHEGRDGDYWGQGTQVTVSS”, the “polyreactivity (PSR sort gate)” value is reported as “high polyreactivity”.

Turning to “QVQLVESGGRLVQAGCSLRLSCAASGFTFYQNAMGWYRQAPGKVRELVAAISVSGDSTYYADSVKGRLTISRDNAKNTVYLQMNSLKPEDTAVYYCTEYFYYLSLYYYYWFNYDYWGHGTQVTVSS”, the “polyreactivity (PSR sort gate)” value is recorded as “low polyreactivity”.

With “QVQLVESGGRLVQAGGRLPLSCAASGSIFTGNAMGWYRQAPGKERELVAAITQRGGRTYYADSVKGRFTISRDNSKNTVYLQMNSLKPEDTAVYYCAADPPGYVYGKRYYWGQGTQVTVSS”, the “polyreactivity (PSR sort gate)” value is “high polyreactivity”.

As for “QVQLVESGGRLVQAGGRLRLSCAASGRTILLYAMGRYRQAPGKESELVPAIRSSTVSTYYADSVKGRFTISRDNAKNTVYLQMYSLKPEDTAVYYCAASRPKYGPSGVRYNYWGQGTQVTVSS”, the “polyreactivity (PSR sort gate)” value is given as “high polyreactivity”.
